Measured values as given in PMC7058303.

Biological target: Sus1 from S. cerevisiae (recombinant) (Saccharomyces cerevisiae) (UniProt Q6WNK7)
Assay: SEC; Superdex 75 10/300 GL, calibrated with molecular weight markers; non-dissociating conditions; elution volume 12 ml

Substance: Sus1 from S. cerevisiae (recombinant) (from UniProt Q6WNK7 1-96) (natural protein)
- stoichiometry N: 3
